Data on 1 molecule can be found in patent publication US20200157197A1 (VENOMYX, published 2020).

The target of this assay is T1, Cobrotoxin (N. Atra, Miami Serpentarium) (Naja atra, UniProt P60770 22-83).
T1 sequence: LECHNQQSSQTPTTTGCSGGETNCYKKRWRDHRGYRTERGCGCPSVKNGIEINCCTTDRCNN
Put plainly: panning, phage ELISA and purified-VHH ELISA on coated toxin. In general terms: ELISA stands for enzyme-linked immunosorbent assay.

B1: Anti-cobrotoxin VHH (B9) (VHH)
VHH: QVQLQESGGGLAQAGGSLRLSCSASRNIFRVYGWYRQAPGKQREWVASITRDDSTAYADSVKGRFTISRDSAKNTMYLQMSSLRLEDTSTYYCAAQSISGTIQWGQGTQVTVSS
notes: also called VHH candidate against cobrotoxin
B1: the binding result is “binds”.
